Assay results published in patent US20180079802A1.

B1: 4J21 Fab (Fab, V domains shown)
VH: QVQLVQSGSELKKPGASVKVSCKASGYSFTSYSINWVRQAPGQGPEWMGWIDTNTGNPTYAQDFAGRFVFSLDTSVTTAYLQISSLKAGDTAVYYCATYYVDLWGSYRQDYYGMDVWGHGTLVTVSS
VL: QSVVTQPPSVSGTPGQGVTISCSGGSSNIGSNPVNWYQMVPGTAPKLLLYTNNQRPSGVPDRFSGSKSGTSASLAINGLQSEDEADYYCAVWDDSLSGRWVFGGGTKLTVL
B2: 3E23 Fab (Fab, V domains shown)
VH: QVQLVQSGPGLVKPSDTLSLTCSVSSDALRSRSYYWGWVRQPPGKGLEWIGTVSYSGGTYYNPSLQSRVTVSVDTSKNHFSLRLNSVTAADAAVYYCARSYFYDGSGYYYLSYFDSWGQGTLVTVSS
VL: QAVVTQEPSLTVSPGGTVTLTCASSTGAVTSGHYPNWFQQKPGQPPRALIYSTDNKHSWTPARFSGSLLGVKAALTLSDVQPEDEADYYCLLHFGGVVVFGGGTKLTVL

Biological target: CHIKV VLP
Assay: SPR (Biacore T100), VLP captured by mouse anti-CHIKV mAbs, Fab injected

Binder	Kd [nM]	koff [s⁻¹]	kon [M⁻¹ s⁻¹]	t1/2 [min]
B1	9	0.00142	158000	8
B2	19.6	0.000393	20300	29
